Test results from patent publication US20230255880A1, “IMMOBILIZED ENZYME-BASED WOUND DEBRIDEMENT” (Guild Associates Inc., priority 2022, published 2023).

Legend:
casein = experiment: pH stability and autolytic resistance, 6 hours at 37° C. in phosphate buffer; format: physicochemical; conditions: for Retained activity after 6 hours of exposure: phosphate buffer, average of 5 ± standard error
Procedure: Natural (non-immobilized) and immobilized forms of each enzyme were loaded into 10 mL of phosphate buffer solutions at pH 7.0, 6.0, and 5.0 and mixed for 6 hours at 37° C. These pH values were selected as representative of the range of pH of intact to wounded skin. The amount of natural or immobilized enzyme material that was added at the start of the test was based on its measured activity, so that all tests started with similar enzyme activities for each enzyme: 2.6 U bromelain, 21 U collagenase, and 5.4 U trypsin. Retained activity was determined by taking a sample of the test solution at a given time point and evaluating it against casein. The measured activity of the test sample was divided by the activity measured at the start of the test and is presented as the average of 5 measurements±standard error, Table 2.

Human fibroblasts = experiment: Fibroblast compatibility study, resazurine-based assay; format: cell-based; conditions: all tested concentrations
Procedure: (§1) Immobilized enzyme samples were further analyzed to determine if they have a detrimental effect on healthy tissue surrounding a burn wound. Human keratinocytes and fibroblasts obtained from ATCC, were seeded at cell densities of 2×10^4 in 24 well plates 6 days prior to experiments and incubated at 37° C. under 5% CO2. On day 7 a stock solution of 100 mg/mL an immobilized enzyme or natural enzyme is prepared in either PBS or a culture medium. Cells were treated with 500 μL of the enzyme solution, at several dilutions, for up to 6 hours. At the end of the test, the enzyme solution is removed, cells were washed twice with PBS, and 500 μL of the appropriate cultivation media is added. The effect of the different concentrations of enzyme on the cells is assessed using a resazurine-based assay and life cell imaging. In this case the fluorescence signal is proportional to the amount of vital cells. All enzyme concentrations were measured in triplicate (n=3). The enzyme containing fluid removed after 6 hours of exposure to cells is evaluated using the methods described above for enzymatic activity. Data determined above is used to compensate for autolytic degradation in test samples.

[1] = Diffusion through Strat-M membranes in Franz cell (in vitro dermal compatibility); format: in vitro ADME; conditions: after 6 hours, averaged across all tests, 37° C., PBS pH 7.4
Source text: Strat-M™ membranes (EMD Millipore) were selected and for testing diffusion of the immobilized enzyme through healthy skin. Strat-M is a synthetic polymeric membrane designed to simulate the properties of human skin for transdermal diffusion. The membrane is composed of multiple polyether sulfone layers with a tightly packed surface layer to create a morphology that resembles human skin. The advantage of this material is that it provides a more predictive result, since it has less variability between samples, and is not as limited to storage conditions, safety considerations, and sample availability.
Franz cells with 5 mL receptor volumes were filled with filtered 10 mM PBS buffer at pH 7.4 and held at 37° C. Strat-M membranes were placed on the receptor, covered with 0.3 mL of buffer, and the system was allowed to equilibrate with the receptor fluid for at least 30 minutes. After equilibration 0.5 mL of solutions containing 20-100 mg/mL of natural enzyme, immobilized enzyme, or BSA as a control were added to the top of the Franz cell and the cell was covered. 0.5 mL samples were taken hourly (replacing the volume with fresh PBS buffer each time) for the first 6 hours and a final sample at 24 hours. The protein concentration in each sample was evaluated using a Bradford assay and a 660 nm protein concentration assay from Pierce. The enzyme activity of the 24-hour samples was evaluated to determine if active enzyme or just peptides had passed through the membrane.

Human keratinocytes = experiment: Keratinocyte compatibility testing, resazurine-based assay; format: cell-based
Procedure: as §1

Substance | Loss of initial activity within 6 hours (casein; all pH tested) | Retained activity after 6 hours of exposure (casein; pH 5, 37° C.) | Retained activity after 6 hours of exposure (casein; pH 6, 37° C.) | Retained activity after 6 hours of exposure (casein; pH 7, 37° C.) | Relative signal (cell growth) (Human fibroblasts) | Amount of protein passing through Strat-M membranes [1] | Relative signal (Human keratinocytes; all tested concentrations) | Loss of starting activity after 6 hours (casein; pH 7) | Highest relative signal (Human keratinocytes; 40 mg/mL) | Retained activity after 6 hours of exposure (casein; pH 5, 37° C., listed as bromelain Natural)
collagenase | 80-90% | 12.3% ± 4.5% | 18.9% ± 1.3% | 13.9% ± 3.3% | ~1 | 18.15 ± 0.81 mg | – | – | – | –
trypsin | – | 43.3% ± 1.1% | 46.1% ± 1.2% | 7.7% ± 5.3% | almost no change to cell growth | 11.93 ± 0.50 mg | around 1 | 92% | – | –
bromelain | – | – | 36.1% ± 1.4% | 64.7% ± 3.0% | – | 2.08 ± 0.25 mg | – | – | 6.71 | 95.6% ± 4.9%
